Experimental data taken from the supplement of paper PMC9170038.

Tested on: K4 kissing-loop RNA reporter
Assay: apparent KD of K4 kissing-loop reporter; higher = weaker reporter binding
Settings: Eterna round: R107
Procedure: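 RNA-MaP round R107: designed RNA switches with theophylline, tryptophan, arginine or FMN aptamers are transcribed on-chip within common flanks. They are titrated with a labelled K4 kissing-loop RNA reporter in RNA-MaP buffer (100 mM Tris pH 7.5, 80 mM KCl, 4 mM MgCl2), without ligand or with the indicated ligand. Median apparent KD per design.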

[1] = input ligand: theophylline 20 uM
[2] = input ligand: tryptophan 2.4 mM
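Further: bound reporter read as fluorescence of individual clusters on recovered sequencing chips by microscopy, with normalized cluster intensities fitted with a binding model.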

Sequence | apparent KD of K4 kissing-loop reporter (input ligand: FMN 200 uM) [nM] | apparent KD of K4 kissing-loop reporter (input ligand: arginine 13.2 mM) [nM] | apparent KD of K4 kissing-loop reporter (input ligand: none) [nM] | apparent KD of K4 kissing-loop reporter [1] [nM] | apparent KD of K4 kissing-loop reporter [2] [nM]
UUUAUAUUGUCGGCCGCCACUGGAUUAAUAUUUGUAUAAUCUAGUUCAAAGUGAUGUUUUGAGUCCAGGACCGGGACAUUUGUUA [JR_ExcTryptoB_Sub004] | 670 | 515 | 536 | 558 | 445
UUUAUUAAGACGGCCGCCACUGAAUCAUAGUGAUGUUAUGAUAAAAUUUUAGAUAAUAAUAACAGCAGGACCGGGUCAAUUAUUA [JR_SSTryptoB_Sub015] | 200 | 173 | 208 | 191 | 182
UUUAUUAAGACGGCCGCCACUGAUUCAGAGUGAUGUUCUGAUAAAAUUUUAGAUAAUAAUAACAGCAGGACCGGGUCAAUUAUUA [JR_SSTryptoB_Sub014] | 211 | 211 | 238 | 219 | 208
UUUCUACCGGGAAGGAGCGUGAAUGAUAAUGGAUAUAGUGAUGUUAUAUAUACGAACGAAUCGCAGGUAGGUCGCCCGGAUCCCU [SSArgB.V] | 492 | 594 | 593 | 549 | 496
UUUCUUUUCUUUUGCGAUCCUAUCCCUUAUAAGGAUAUCUAGAAAUAGAGAAGGUAUGCAGUGAUGUUGCUUGGGAUAGGAUCGC | 311 | 275 | 301 | 277 | 241
UUUGGCCACAGAGAUACCAGUCAUAUCGCUCUGGAGUGAUGUUCCGGAACAUGCGGAGAAGACCCUUGGCAGCUCAUGACGGUAA [Exclusion Theophylline B GF 2] | 232 | 194 | 196 | 201 | 254
UUUGGUAGCGGUGUUGAUUAGGGAGCGGAAGGAGCGCCGAGGAGGGCAGGUAGGUCGCCGGAAUGUAGUGAUGUUGCAUAGAGGU [ExArgA.Ab] | 269 | 227 | 253 | 574 | 214
UUUGUAUCGGGAAGGAGCGUGAAUGAUAAUGGAUAUAGUGAUGUUAUAUAUAAGAACGAAUCACAGGUAGGUCGCCCGGAUGACU [SSArgB.P] | 546 | 566 | 648 | 586 | 678
UUUGUGAGUGAUGUUUGCAAUACGUUACCGAAGGAUAUUGUUGCGCCAAGAAGGUCGGAUGGAUCCAUGGGACAUGCCCUGGAGA [theeternabot_sameState_KL_FMN_A_45] | 617 | 384 | 509 | 450 | 474
UUUUAAUAAGAGGAUACCAGUACAAAUAAAGUACAUUAAUAGUAGAGUGAUGUUCUAAAGUACCCUUGGCAGCUUAGAGUAAGUU [ExTheophylB.B] | 123 | 242 | 156 | 260 | 99.8
UUUUAAUGCAGUGAUGUUGCAAAUAAAACAGAGGAUAUGCAUGGAAGCAGAAGGCUGAUAUGUCGUACUUCGACAUAUUAUAUUU [JR_SSFMNA_Sub012] | 89.2 | 125 | 91.4 | 121 | 81
UUUUACGAUACGGCCGCCACUGGUGUUAUAUAUUUGCAGGAGUGAUGUUCGUGCGAUCAUUCCAUCAGGACCGGGUAUACGCGGC [theeternabot_sameState_KL_Trp_B_43] | 265 | 209 | 318 | 765 | 507
UUUUAUUAAUACUUCUAGUGAUGUUAGAUACGAGGACCGGUACGGCCGCCACUCGCUUAUUGGUUUAUAUAUUUUUUAUUCUUUA [JR_SSTryptoA_Sub013] | 276 | 349 | 316 | 353 | 263
UUUUGGCCAACGGCCGCCACUCACUAGUGAUGUUAGUUUGUGUUAUUCAUGAACCCGAUGUCGUCGAGGACCGGGUUGGGUUAUA [theeternabot_exclusion_KL_Trp_B_41] | 242 | 197 | 237 | 201 | 244
UUUUUAAACUCGGCCGCCACUCAAAUGGGAGUGAUGUUCCCAAAAUAAUAAAUAAAUAAUAAUAAGAGGACCGGGAGAAAUUUUU [Same State - Trytophan B] | 94 | 98.2 | 106 | 94.8 | 81.3
UUUUUAAUCGCAGAUACCAGUCCAGAAUAAAUACUAUAGUGAUGUUAUAAAUAAGGAAAGGACCCUUGGCAGCUGUACUAUAUUU [AstrosSsTheB#7] | 433 | 465 | 668 | 372 | 524
UUUUUAUUCAGUGAUGUUGAAUUUAUAACAGAGGAUAUGCAUAAAAGCAGAAGGCUGAAAUACUAUACUUUAAUAAAUUAUAUUU [JR_SSFMNA_Sub016] | 214 | 274 | 261 | 326 | 192
UUUUUUAAGAUGUCGACCAACCCGAAGCUACGAGGACCGGUACGGCCGCCACUCGCCAGUGAUGUUGGCGACUGGUGAAACCAUG [Ceesaror] | 133 | 97.8 | 110 | 103 | 227
